Measured values published in paper PMC10783083, “Val43 residue of NsrR is crucial for the nitric oxide response of Salmonella Typhimurium”.

Key:
NsrR V43A = NsrR V43A (Salmonella enterica serovar Typhimurium …, UniProt Q8ZKA3 1-141, V43A); assay: EMSA; no NO; 0.0625-4 uM protein; stronger than WT; conditions: protein: recombinant; tags: N-terminal His (pET28a); chain copies: 2; label: 32P (5' by T4 PNK); blunt
[1] = biological target: NsrR V43A, in vitro translated (Salmonella enterica serovar Typhimurium …, UniProt Q8ZKA3 1-141, V43A); assay: EMSA; 2 uM; clear shift; conditions: protein: ivt; tags: N-terminal His (pET28a); chain copies: 2; label: 32P (5' by T4 PNK); blunt

B1: hmp probe (dsDNA)
DNA 1: AAGATGCATTTGATATACATCATT
DNA 2: AATGATGTATATCAAATGCATCTT
binding result (NsrR V43A): binds | binding result [1]: binds
